According to patent US20120148657A1, “Lipoxygenase and Its Use in Wound Healing” (priority 2009, published 2012):

Assays:
epithelial Axolotl cells = test: In vitro wound healing model: proliferation of epithelial cells from Axolotl skin biopsies (Celltiter blue); type: cell-based; conditions: for Epithelial cell proliferation: 1 μM MK-886 and 60 μM NDGA, respectively, plates incubated two days, Celltiter blue fluorescence
Source text: In order to investigate the influence of endogenous lipoxygenase activity on the migration and proliferation of epithelial Axolotl cells, skin biopsies with 2 mm diameter were taken form Axolotl tail skin. The skin biopsies were placed in cell culture dishes coated with bovine collagen I to allow for cell migration and proliferation in an in vitro wound healing model. The wound healing is observable by […] of epithelial cell growing from borders of the skin biopsies. The proliferation rates were determined by addition of Celltiter blue (Promega), an assay for detection of metabolic activity as an indirect measurement of cell proliferation based on Resazurin/Resofurin. Two known lipoxygenase inhibitors for the human lipoxygenase were used to examine the effect of lipoxygenase activity on cell proliferation (1 μM MK-886 and 60 μM NDGA, respectively). […] That is, the plates were incubated for two days to ensure proliferation of epidermal cells. Then, the number of metabolizing cells was determined by Resozuran-Resofurin exchange (Celltiter blue, Promega, Madison, USA). 2 μl Resozuran solution was added to each well for two hours and the fluorescence was read in a multiplate reader at 520 nm. The detected fluorescence was expressed in relative fluorescent units (RFU), means and standard deviation were calculated from triplicates with Microsoft Excel and tested for statistical significance using student's T-test. Experiments were repeated at three independent times to ensure reproducibility.

[1] = test system: transiently transfected cell populations; test: Scratch assay of transiently transfected cell populations treated with lipoxygenase inhibitor; type: cell-based, human
Description: (§1) The coding sequence of AmbLOXe was subcloned in frame into the mammalian expression vector pTriEx-1 (Novagen). Plasmids were purified from transformed DH5α using the GenElute plasmid purification Kit (Sigma). Human osteosarcoma cells U2-OS or human spontaneously immortalized keratinocyte cells HaCaT (ATCC) were seeded into 100 mm cell culture dishes and grown over night to 40-50% confluence. Cells were transiently transfected with Fugene6 (Roche, Mannheim, Germany) following the instructions of the manufacturer. Briefly, 18 μl of the reagent were diluted with 600 μl serum-free medium and incubated at room temperature. After 5 min 6 μg of a 1:1 mixture of pTriEx-AmbLOXe and pEGFP-C3 (Clontech), which encodes Green Fluorescent Protein (GFP), were supplemented and incubated for additional 15 min. The transfection complex was added to the cell dishes in a dropwise manner. Cells were incubated for 24 hours before being analyzed for transfection efficiency by detection of GFP positive cells in a flow cytometer (FC-500, Beckman-Coulter, Fullerton, Calif., USA). Only cell populations were used in which about 25% GFP positive cells (U2-OS) or 12% GFP positive cells (HaCaT) could be detected. The cells were seeded into a six well plate until they reached confluence. The monolayer was then wounded with a disposable plastic pipet tip (10 μl-100 μl volume). The cells ere incubated in DMEM High Glucose (Biochrom, Berlin, Germany) supplemented with 10% FCS). The scratches were documented by microphotography and incubated for 16 hours. Then the scratches were again photographed and the remaining areas were measured using CellD (Olympus) software program. All experiments were carried out in quadruplicates and repeated at four independent times. Means and standard deviation were calculated and tested for statistical significance with ANOVA followed by Bonferroni's posthoc test.
In order to determine the influence of lipoxygenase inhibitor on the transiently transfected cell populations, cells transfected with empty vector (control) and scratched cell monolayers transfected with vectors containing human 12R LOX and AmbLOXe, respectively, received an overnight treatment with NHGA.

U2-OS cells = test: Scratch assay for wound closure in transfected U2-OS cells; type: cell-based, human; conditions: for perimeter size of remaining scratch area (mean value): U2-OS cell populations transfected; for perimeter size of remaining scratch area (mean value) / wound closure in scratch assay (FIG. 2): after 16 hours incubation; for scratch width reduction: U2-OS cells transfected with expression plasmid, 16 hours incubation; for wound closure in scratch assay (FIG. 2): U2-OS cells transfected
Source text: To compare the effect of epidermal lipoxygenase of human and Axolotl origin, a human cell line, U2-OS was transfected with expression plasmids encoding for the two types of lipoxygenase (pAmbLOXe, phuLOX) in combination with a vector encoding for GFP (pEGFP-C3, Clontech) as a reporter for transfection efficiency. Controls were transfected with empty vector and pEGFP-C3.
as §1
A cDNA fragment coding for full-length AmbLOXe was cloned in frame into the mammalian expression vector pTriEx-1 and transfected together with an expression plasmid for EGFP into the U2-OS cell line to evaluate a possible influence of AmbLOXe expression in a mammalian model system. Only cell populations with a transfection efficiency of about 25% (U2-OS), respectively 12% (HaCaT) were used for all assays and seeded to confluent monolayers which subsequently were wounded with scratches.
The remaining scratch areas photographed after 16 hours incubation were used to determine the influence of AmbLOXe expression on mammalian cell migration. While no AmbLOXe expression could be observed in U2-OS cell populations transfected with an empty vector, and in U2-OS cell populations transfected with huLOX, AmbLOXe expression was detected in U2-OS cell populations transfected with AmbLOXe encoding plasmids. A perimeter size reduction to a mean value of 24806.26 μm in the cell populations transfected with an empty vector was found; while cell populations containing AmbLOXe expressing cells and cell populations containing cells expressing human 12R LOX reduced the photographed scratch area to mean values of 517.46 μm and 2086.86 μm, respectively.

[2] = test system: Mice having a full thickness skin wound; test: Full thickness skin wound animal model (injection of transfected murine embryonic fibroblasts); type: in vivo; conditions: for wound closure (FIG. 5): determined after day 3 and day 7, transfected murine embryonic fibroblasts; for wound size: compared to human lipoxygenase, empty vector and untreated groups, C57/BR6 female mice
Description: That is, murine embryonic fibroblasts were seeded in cell culture dishes to 50% confluence and were transfected with expression plasmids encoding two different types of lipoxygenase (pAmbLOXe, phuLOX), an empty vector was used as control. After 24 hours, the cells were washed and trypsinated. Cells in an amount of 100,000 cells/ml in PBS were resuspended and 200 μl cell suspension was injected into area adjacent to a wound of a full thickness skin wound. Said full thickness skin wound was prepared in advance using mice (C57/BR6 female) where the back was shaved and the skin was disinfected. Thereafter, a full thickness skin wound was set using a 8 mm biopsy punch, resulting in a 50 mm^2 defect. A control group was prepared not treated with any cell suspension. After day 3 and day 7 a photo was taken from the wound and the reduction of wound size was measured and determined statistically.

[3] = test system: HaCaT keratinocyte cell line; test: HaCaT monolayer scratch assay (cell migration); type: cell-based, human; conditions: HaCaT populations transfected; 16 hours incubation; compared to empty vector (p=0.0035) and huLOX (p=0.028) transfected populations
Description: The coding sequence of AmbLOXe was subcloned in frame into the mammalian expression vector pTriEx-1 (Novagen). Plasmids were purified from transformed DH5α using the GenElute plasmid purification Kit (Sigma). Human osteosarcoma cells U2-OS or human spontaneously immortalized keratinocyte cells HaCaT (ATCC) were seeded into 100 mm cell culture dishes and grown over night to 40-50% confluence. Cells were transiently transfected with Fugene6 (Roche, Mannheim, Germany) following the instructions of the manufacturer. Briefly, 18 μl of the reagent were diluted with 600 μl serum-free medium and incubated at room temperature. […] Cells were incubated for 24 hours before being analyzed for transfection efficiency by detection of GFP positive cells in a flow cytometer (FC-500, Beckman-Coulter, Fullerton, Calif., USA). Only cell populations were used in which about 25% GFP positive cells (U2-OS) or 12% GFP positive cells (HaCaT) could be detected. […] Then the scratches were again photographed and the remaining areas were measured using CellD (Olympus) software program. […] Means and standard deviation were calculated and tested for statistical significance with ANOVA followed by Bonferroni's posthoc test. […]
As described for the transfected U2-OS populations cellular migration was determined in HaCaT monolayer scratch assays.

Q: How did the Epithelial cell proliferation (epithelial Axolotl cells) turn out when `CC(C)c1ccc2c(c1)c(SC(C)(C)C)c(CC(C)(C)C(=O)O)n2Cc1ccc(Cl)cc1` [MK-886] was run?
A: The Epithelial cell proliferation was “significantly reduced”.

Q: What about the “effect on the Axolotl epithelial cells compared with NDGA” value (epithelial Axolotl cells; treatment of MK-886) of the same molecule?
A: The value was “equal effect”.

Q: How did the Epithelial cell proliferation (epithelial Axolotl cells) turn out when `CC(Cc1ccc(O)c(O)c1)C(C)Cc1ccc(O)c(O)c1` (stereo not drawn) [NDGA] was run?
A: Its Epithelial cell proliferation is “significantly reduced”.

Q: Which results are given for `CC(Cc1ccc(O)c(O)c1)C(C)Cc1ccc(O)c(O)c1` (stereo not drawn) [NHGA]?
A: scratch area (mean value) ([1]; cell populations expressing AmbLOXe, overnight treatment with NHGA): 4428.33 μm; migration behaviour compared to the solvent treated monolayers ([1]; cells expressing huLOX, overnight treatment with NHGA): no significant differences; migration behaviour compared to the solvent treated monolayers ([1]; empty vector transfected cells, overnight treatment with NHGA): no significant differences

B1: huLOX: human epidermal lipoxygenase (human 12R LOX) expressed from plasmid phuLOX, comparator (protein, UniProt O75342 1-701, looked up)
Arachidonate 12-lipoxygenase, …: MATYKVRVATGTDLLSGTRDSISLTIVGTQGESHKQLLNHFGRDFATGAVGQYTVQCPQDLGELIIIRLHKERYAFFPKDPWYCNYVQICAPNGRIYHFPAYQWMDGYETLALREATGKTTADDSLPVLLEHRKEEIRAKQDFYHWRVFLPGLPSYVHIPSYRPPVRRHRNPNRPEWNGYIPGFPILINFKATKFLNLNLRYSFLKTASFFVRLGPMALAFKVRGLLDCKHSWKRLKDIRKIFPGKKSVVSEYVAEHWAEDTFFGYQYLNGVNPGLIRRCTRIPDKFPVTDDMVAPFLGEGTCLQAELEKGNIYLADYRIMEGIPTVELSGRKQHHCAPLCLLHFGPEGKMMPIAIQLSQTPGPDCPIFLPSDSEWDWLLAKTWVRYAEFYSHEAIAHLLETHLIAEAFCLALLRNLPMCHPLYKLLIPHTRYTVQINSIGRAVLLNEGGLSAKGMSLGVEGFAGVMVRALSELTYDSLYLPNDFVERGVQDLPGYYYRDDSLAVWNALEKYVTEIITYYYPSDAAVEGDPELQSWVQEIFKECLLGRESSGFPRCLRTVPELIRYVTIVIYTCSAKHAAVNTGQMEFTAWMPNFPASMRNPPIQTKGLTTLETFMDTLPDVKTTCITLLVLWTLSREPDDRRPLGHFPDIHFVEEAPRRSIEAFRQRLNQISHDIRQRNKCLPIPYYYLDPVLIENSISI
Q: For B1, which “perimeter size of remaining scratch area (mean value)” value (U2-OS cells) is on record?
A: The value was 2086.86 μm.

Q: What about the scratch width reduction (U2-OS cells) of the same molecule?
A: The scratch width reduction was 56.75%.

Q: What about the “wound closure in scratch assay (FIG. 2)” value (U2-OS cells) of the same molecule?
A: Its value is “has not finished yet”.

Q: What about the “wound closure (FIG. 5)” value [2] of the same molecule?
A: Its value is “comparable with the control groups”.

B2: AmbLOXe: epidermal lipoxygenase from axolotl, Seq. ID. Nos. 1 and 2, EMBL Accession No. EU814616; tested by expression plasmid transfection (protein, listed as Ambystoma mexicanum)
chain: MVDEYRIKEDRDLGEILLIRLHKGPFSIFPEDNWYCMYVTVTSPGGVIYHFPCYRWIEGYPTVELAEGTAMLSSASNLHVTLKKQRESDLEQRRKVYRWKVYHPSFPKCIDVANNDELDKDAKYSITKTVHFVINKNVSNIAIKLKGFDGRQESWKSFDELKRVYWTLKTAKSEYVSHHWKEDAFFGYQYLNGPDPTLIKRCNKIPGNFPVTDEMVSYSLGASTSLEKELQKGNIYIVDHKMMEGLRANVLNGKQQYMAAPLCLFYRTPKDEVIPLAIQLNQTPGSETPLFLPSDNEWDWILAKIWVRSTSFAFHQAVSHFLRTHVFAEVFCLATLRQLPMAHPLYKLLVPHLRYTLQINVLARERLIGPGGAFDKNTAVGIAGIAELIKRDMETLKYSTLCLPENLQSREVESLPHFYYRDDGMKIWLAIESYVSGIVDYYYKSEESIQKDPELQAWVAEIFKEGFLERKSSGIPSSLETRVELIKYLTMVIFTCSAEHAAVNSGQFDFLSWMPNGPSTMRQPPPKTKGLATMESVLEALPEVGITTNIMTTVWTLSKEPGDMRPLGTYPDEHFTEEGPKQCIRAFQERLSEISREIEHRNASLPIKYNYMNPKVIENSVSI
Q: Which “perimeter size of remaining scratch area (mean value)” value (U2-OS cells) does the source give for B2 here?
A: The value was 517.46 μm.

Q: What about the scratch width reduction (U2-OS cells) of the same molecule?
A: Its scratch width reduction is 89.94%.

Q: And the “wound closure in scratch assay (FIG. 2)” value (U2-OS cells)?
A: Its value is “substantially completed”.

Q: And the “measured wound scratch (mean value)” value ([1]; solvent treated cell populations expressing AmbLOXe)?
A: Its value is 3388.99 μm.

Q: What about the “remaining scratch perimeter size” value [3] of the same molecule?
A: The value was “significantly smaller”.

Q: And the wound size ([2]; day 3)?
A: Its wound size is “reduced dramatically”.

Q: And the wound size ([2]; day 7)?
A: Its wound size is “reduced dramatically”.

Q: What about the “wound closure (FIG. 5)” value [2] of the same molecule?
A: The value was “significant reduction”.
